T1: human B7-H3 (4Ig-B7-H3 variant) (Homo sapiens, UniProt Q5ZPR3)
T1 construct: His tag (6xHis) (C)
T1 sequence (Q5ZPR3 with tags, fused parts or gaps): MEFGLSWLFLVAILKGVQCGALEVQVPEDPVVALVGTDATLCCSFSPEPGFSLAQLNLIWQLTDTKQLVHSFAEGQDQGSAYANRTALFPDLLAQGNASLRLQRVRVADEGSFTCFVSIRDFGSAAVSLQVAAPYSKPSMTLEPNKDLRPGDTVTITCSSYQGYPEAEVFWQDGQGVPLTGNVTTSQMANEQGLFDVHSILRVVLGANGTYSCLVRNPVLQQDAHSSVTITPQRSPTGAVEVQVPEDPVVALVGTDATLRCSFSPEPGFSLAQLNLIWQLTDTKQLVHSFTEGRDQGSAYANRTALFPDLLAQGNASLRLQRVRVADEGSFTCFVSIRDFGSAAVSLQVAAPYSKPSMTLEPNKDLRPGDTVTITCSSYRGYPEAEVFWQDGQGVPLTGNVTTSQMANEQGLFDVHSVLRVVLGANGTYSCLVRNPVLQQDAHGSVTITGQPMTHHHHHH


What was measured:
[1] = biological target: cyno B7-H3; assay: Biacore T200 SPR binding kinetics, mAb capture, soluble ECD of cyno B7-H3; set-up: species or system cynomolgus monkey; conditions: 1:1 binding model
cyno B7-H3, sequence (as listed by the source): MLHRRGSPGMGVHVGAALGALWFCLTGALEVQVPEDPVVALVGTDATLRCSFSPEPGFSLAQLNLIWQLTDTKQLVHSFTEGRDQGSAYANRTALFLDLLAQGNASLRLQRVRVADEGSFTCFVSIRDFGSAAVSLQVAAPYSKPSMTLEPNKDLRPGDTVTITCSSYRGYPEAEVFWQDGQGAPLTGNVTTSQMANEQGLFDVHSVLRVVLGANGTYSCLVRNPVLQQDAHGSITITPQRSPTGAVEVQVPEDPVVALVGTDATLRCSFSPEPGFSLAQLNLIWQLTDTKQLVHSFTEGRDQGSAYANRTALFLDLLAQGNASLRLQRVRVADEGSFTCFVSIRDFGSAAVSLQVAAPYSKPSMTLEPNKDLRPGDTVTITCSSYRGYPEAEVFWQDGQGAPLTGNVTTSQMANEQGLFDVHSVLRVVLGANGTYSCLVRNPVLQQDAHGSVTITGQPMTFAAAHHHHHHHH
Method: [The source words this procedure for another species and reports this species under the same test.] (§1) The binding affinity of the purified anti-B7-H3 monoclonal antibodies was determined by surface […]. […] The binding kinetics were derived from SPR measurements using a Biacore T200 instrument and a mAb capture approach (as described in the materials and methods below).
(§2) Biacore T200 SPR instruments were used to measure the binding kinetics of human B7-H3 (4Ig-B7-H3 variant) (analyte) binding to various mAbs (ligands). The assay format was Fc-based capture via immobilized anti-mouse (Fc) (Pierce 31170) or immobilized anti-human (Fc) (Pierce 31125). A standard amine coupling protocol was employed to immobilize the capture reagents via primary amines to the carboxy-methyl (CM) dextran surface of CM5 sensorchips (Biacore); capture antibodies were coupled to a level of approximately 5000RU. For binding kinetic measurements the assay buffer was HBS-EP+ (Biacore): 10 mM Hepes, pH7.4, 150 mM NaCl, 3 mM EDTA, 0.05% polysorbate 20. During the assay, all measurements were referenced against the capture surface alone. Each assay cycle consisted of the following steps: 1) Capture of ligand to approximately 50RU; 2) Analyte injection over both reference and test surface, 240 μL at 80 μL/min, after which the dissociation was monitored for 900 seconds at 80 μL/min; 3) Regeneration of capture surface with low pH glycine. For kinetic determinations analyte injections were 3-point, 9-fold dilution series of 900 nM, 100 nM and 11.11 nM, buffer only injections were included for secondary referencing. Data were processed and fit to a 1:1 binding model using Biacore T200 Evaluation Software to determine the binding kinetic rate constants, ka (on-rate) and kd (off-rate), and the equilibrium dissociation constant (affinity, KD).

[2] = biological target: T1, human B7-H3 (4Ig-B7-H3 variant); assay: Biacore T200 SPR binding kinetics, mAb capture, soluble ECD of human B7-H3; conditions: 1:1 binding model
Method: as §1, §2

[3] = Percentage aggregation of ADCs by size exclusion chromatography (SEC); format: physicochemical; conditions: humanized Ab3-CZ variants, Table 14
Method: The DAR and percentage aggregation of ADCs synthesized were determined by LC-MS and size exclusion chromatography (SEC), respectively.
Size exclusion chromatography was performed using a Shodex KW802.5 column in 0.2 M potassium phosphate pH 6.2 with 0.25 mM potassium chloride and 15% IPA at a flow rate of 0.75 ml/min. The peak area absorbance at 280 nm was determined for each of the high molecular weight and monomeric eluents by integration of the area under the curve. The % aggregate fraction of the conjugate sample was determined by dividing the peak area absorbance at 280 nm for the high molecular weight eluent by the sum of the peak area absorbances at […] of the high molecular weight and monomeric eluents multiplied by 100%.

Molecule	KD (M) cynoB7-H3 [1]	KD (M) huB7-H3 [2]	ka (1/Ms) cynoB7-H3 [1] [M⁻¹ s⁻¹]	kd (1/s) cynoB7-H3 [1] [s⁻¹]	ka (1/Ms) huB7-H3 [2] [M⁻¹ s⁻¹]	kd (1/s) huB7-H3 [2] [s⁻¹]	% agg by SEC [3] [%]
Ab7: mouse hybridoma derived anti-B7-H3 monoclonal antibodies (mAbs) (antibody, V domains shown) VH: EVQLVESGENLVKPGGSLKLSCAASGFSFRGYGMSWVRQTPDKRLEWVAAISTGGNYTYYPDSVQGRFTISRDNANNTLYLQMSSLKSEDTAMYYCARRGGNYAGFAYWGQGTLVTVSA VL: DIQMTQSPASLSVSVGETVTITCRPSENIYSNLAWYQQKQGKSPQLLVYAATNLADGVPSRFSGSGSGTQYSLKINSLQSEDFGTYYCQHFWGTPFTFGSGTKLEIK	little observable binding	little observable binding					
Ab6: mouse hybridoma derived anti-B7-H3 monoclonal antibodies (mAbs) (antibody, V domains shown) VH: QVQLQQSGAELMKPGASVKISCKATGYTFSRYWIEWVKQRPGHGLEWIGEILPGSGSTNYNEKFKGKATFTADTSSNTAYMQVSSLTSEDSAVHYCARRGYGYVPYALDYWGQGTSVTVSS VL: EIQMTQTTSSLSASLGDRVTISCRASQDISNSLNWYQQKPDGTVNLLIYYTSRLYSGVPSRFSGSGSGTDYSLTISNLEQEDIATYFCQQGNTLPYTFGGGTKLEIK			28000	0.012	12000	0.01	
Ab17: mouse hybridoma derived anti-B7-H3 monoclonal antibodies (mAbs) (antibody, V domains shown) VH: EVKLVESGGGLVQPGGSLKLSCAASGFTFSSYIMSWVRQTPEKRLEWVASIVSSNITYYPDSMKGRFTISRDNARNILYLQMSSLKSEDTAMYYCARSGTRAWFAYWGQGTLVTVSA VL: DIVLTQSPASLAVSLGQRATISCRASKSVSTSAYSYMHWYQQKPGQPPKLLIYLASNLESGVPARFSGSGSGTDFTLNIHPVEEEDAATYYCQHSRELPYTFGGGTKLEIK			510000	1e-05	540000	1.9e-05	
huAb3v4-CZ (conjugate, drug conjugate CZ; Synthetic huAb3VH.1, huAb3v1, and huAb3v4 VH amino acid sequence; Synthetic huAb3VL.1b, huAb3v4, huAb3v5, and huAb3v6 VL amino acid sequence) VH: EVQLVQSGAEVKKPGSSVKVSCKASGYTFSSYWMHWVRQAPGQGLEWMGLIHPDSGSTNYNEMFKNRVTITADKSTSTAYMELSSLRSEDTAVYYCARGGRLYFDYWGQGTTVTVSS VL: DVVMTQSPLSLPVTPGEPASISCRSSQSLVHSNGDTYLRWYLQKPGQSPQLLIYKVSNRFSGVPDRFSGSGSGTDFTLKISRVEAEDVGVYYCSQSTHVPYTFGGGTKVEIK							3.1
